The results in this text go back to PMC6863848, “Selection of an optimal macrocyclic chelator improves the imaging of prostate cancer using cobalt-labeled GRPR antagonist RM26” (Scientific Reports, 2019).

The structures appear in SMILES notation.

Series [1] is described as follows: Ex vivo biodistribution and tumor targeting. The settings on record: female, BALB/c nu/nu, mouse, iv, 45 pmol per mouse, total radioactivity.
Experimental: (§1) Euthanasia was performed by intraperitoneal injection of Ketalar-Rompun solution (10 mg/mL Ketalar and 1 mg/mL Rompun; 20 µL/g body weight) and all efforts were made to minimize suffering. Groups of 4 mice per data point were used.
(§2) Blood samples were collected by heart puncture. Lung, liver, spleen, pancreas, stomach, small intestines, kidneys, muscle, bone, and the rest of gastrointestinal tract with its content were collected, weighed and measured in a gamma-counter. The organ uptake values were expressed as a percentage of injected dose per gram of tissue weight (%ID/g) with the exception of gastrointestinal tract and the remaining carcass, which were calculated as %ID per whole sample.
(§3) The biodistribution and targeting properties of ^57Co-X-PEG2-RM26 were evaluated in female BALB/c nu/nu mice (weight: 18 ± 2 g). GRPR-expressing xenografts were established by subcutaneous injection of 8 × 10^6 PC-3 cells/mouse, 2 weeks prior to the experiment. At the time of experiment, the mice were intravenously injected with ^57Co-X-PEG2-RM26 (25 kBq, 45 pmol in 100 µL PBS per mouse) and were euthanized 3 and 24 h pi.
Series [2] relates to PC-3 xenografted BALB/c nu/nu mice. In words: Ex vivo biodistribution and tumor targeting. The settings on record: 24 h pi.
Experimental: as §1, §2, §3
For a further series, the system named is NMRI mice. The note with it: 25 kBq, 3 and 24 h pi.
The mark [3] stands for this setting: gastrointestinal tract with content (whole sample).
[4] abbreviates: remaining carcass (whole sample).

Experimental for NMRI mice: as §2

For `CC(C)C[C@H](NC(=O)C[C@H](O)[C@H](CC(C)C)NC(=O)[C@H](Cc1c[nH]cn1)NC(=O)CNC(=O)[C@@H](NC(=O)[C@H](C)NC(=O)[C@H](Cc1c[nH]c2ccccc12)NC(=O)[C@H](CCC(N)=O)NC(=O)[C@@H](Cc1ccccc1)NC(=O)COCCOCCNC(=O)CN1CCN(CC(=O)O)CCN(CC(=O)O)CCN(CC(=O)O)CC1)C(C)C)C(N)=O` [DOTA], the tissue uptake at 3 h in series [1] (blood, Blood uptake, PC-3-xenografted BALB/c nu/nu mice, iv 25 kBq/45 pmol, 3 h pi, 4 mice per data point) stood at 0.028 ± 0.006 %ID/g; in series [1] (bone, Bone uptake, PC-3-xenografted BALB/c nu/nu mice, iv 25 kBq/45 pmol, 3 h pi, 4 mice per data point) it was 0.08 ± 0.03 %ID/g; in series [1] (kidneys, Kidneys uptake, PC-3-xenografted BALB/c nu/nu mice, iv 25 kBq/45 pmol, 3 h pi, 4 mice per data point) it was 1.9 ± 0.3 %ID/g; in series [1] (liver, Liver uptake, PC-3-xenografted BALB/c nu/nu mice, iv 25 kBq/45 pmol, 3 h pi, 4 mice per data point), 0.078 ± 0.009 %ID/g; in series [1] (lung, Lung uptake, PC-3-xenografted BALB/c nu/nu mice, iv 25 kBq/45 pmol, 3 h pi, 4 mice per data point), 0.06 ± 0.01 %ID/g; in series [1] (muscle) it was 0.4 ± 0.7 %ID/g. For the same compound, the tissue uptake at 3 h is 2.5 ± 0.8 %ID/g in series [1] (pancreas, Pancreas uptake, PC-3-xenografted BALB/c nu/nu mice, iv 25 kBq/45 pmol, 3 h pi, 4 mice per data point); 0.9 ± 0.1 %ID/g in series [1] (small intestine, Sm. Int. uptake, PC-3-xenografted BALB/c nu/nu mice, iv 25 kBq/45 pmol, 3 h pi, 4 mice per data point); 0.09 ± 0.02 %ID/g in series [1] (spleen, Spleen uptake, PC-3-xenografted BALB/c nu/nu mice, iv 25 kBq/45 pmol, 3 h pi, 4 mice per data point); 2.1 ± 0.6 %ID/g in series [1] (stomach, Stomach uptake, PC-3-xenografted BALB/c nu/nu mice, iv 25 kBq/45 pmol, 3 h pi, 4 mice per data point); 8.1 ± 0.6 %ID/g in series [1] (tumor, Tumor uptake, PC-3-xenografted BALB/c nu/nu mice, iv 25 kBq/45 pmol, 3 h pi, 4 mice per data point). In addition, the tissue uptake at 24 h in series [1] (blood, Blood uptake, PC-3-xenografted BALB/c nu/nu mice, iv 25 kBq/45 pmol, 24 h pi, 4 mice per data point) came to 0.007 ± 0.002 %ID/g; in series [1] (bone, Bone uptake, PC-3-xenografted BALB/c nu/nu mice, iv 25 kBq/45 pmol, 24 h pi, 4 mice per data point), 0.09 ± 0.06 %ID/g; in series [1] (kidneys) it was 0.8 ± 0.2 %ID/g; in series [1] (liver, Liver uptake, PC-3-xenografted BALB/c nu/nu mice, iv 25 kBq/45 pmol, 24 h pi, 4 mice per data point), 0.034 ± 0.003 %ID/g; in series [1] (lung, Lung uptake, PC-3-xenografted BALB/c nu/nu mice, iv 25 kBq/45 pmol, 24 h pi, 4 mice per data point), 0.023 ± 0.004 %ID/g; in series [1] (muscle, Muscle uptake, PC-3-xenografted BALB/c nu/nu mice, iv 25 kBq/45 pmol, 24 h pi, 4 mice per data point) it was 0.02 ± 0.01 %ID/g. The tissue uptake at 24 h in series [1] (pancreas, Pancreas uptake, PC-3-xenografted BALB/c nu/nu mice, iv 25 kBq/45 pmol, 24 h pi, 4 mice per data point) came out at 0.05 ± 0.01 %ID/g; in series [1] (small intestine, Sm. Int. uptake, PC-3-xenografted BALB/c nu/nu mice, iv 25 kBq/45 pmol, 24 h pi, 4 mice per data point) it was 0.06 ± 0.02 %ID/g; in series [1] (spleen, Spleen uptake, PC-3-xenografted BALB/c nu/nu mice, iv 25 kBq/45 pmol, 24 h pi, 4 mice per data point), 0.035 ± 0.006 %ID/g; in series [1] (stomach, Stomach uptake, PC-3-xenografted BALB/c nu/nu mice, iv 25 kBq/45 pmol, 24 h pi, 4 mice per data point), 0.06 ± 0.02 %ID/g; in series [1] (tumor, Tumor uptake, PC-3-xenografted BALB/c nu/nu mice, iv 25 kBq/45 pmol, 24 h pi, 4 mice per data point) it was 4.4 ± 1.3 %ID/g. Further, the figures for the tissue uptake dose at 3 h in series [1] (setting [3]), in series [1] (gastrointestinal tract with contents) and in series [1] (setting [4]) were 4.8 ± 0.1 %ID, 5 %ID and 0.9 ± 0.4 %ID, respectively. Moreover, the tissue uptake dose at 24 h in series [1] (setting [3]) was 0.21 ± 0.09 %ID; in series [1] (setting [4]), 0.2 ± 0.1 %ID. In series [2], the “Tumor radioactivity, higher than other conjugates” value is listed as “twofold higher”.
Consider `[57Co+2].[Cl-].[Cl-]` [free cobalt, cobalt-57 chloride], for which, in the series with NMRI mice, the Biodistribution pattern result is recorded as “Uniform activity distribution”.

What is called tissue uptake is the percentage of the injected dose found per gram of tissue.
